In publication PMC5173035:

Assays:
[1] = molecular target: M1.HpyAVI, DNA N6-adenine methyltransferase from Helicobacter pylori 26695 (Helicobacter pylori 26695); experiment: crystal structure; cofactor-free (3.0 Å, four monomers in the asymmetric unit) and AdoMet-bound (3.1 Å, eight monomers) crystals; dimer with the two monomers related by a two-fold axis; interface analysed with PDBePISA
[2] = molecular target: M1.HpyAVI, DNA N6-adenine methyltransferase from Helicobacter pylori 26695 (Helicobacter pylori 26695); experiment: SEC; Superdex 75 10/300 column on FPLC, 0.05, 0.1, 0.2, 0.5 mg/ml protein loaded; calibrated with gel filtration calibration kit LMW

stoichiometry N [1]: 2 | stoichiometry N [2]: 2
Substance: M1.HpyAVI, DNA N6-adenine methyltransferase from Helicobacter pylori 26695 (enzyme)
